This sample holds only a part of the variants without activity.
B1: TPR 5TU (parent)
chain: GGAUCUUCUCGAUCUAACAAAAAAGACAAAUCUGCCACAAAGCUUGAGAGCAUCUUCGGAUGCAGAGGCGGCAGCCUUCGGUGGCGCGAUAGCGCCAACGUUCUCAACUAUGACACGCAAAACGCGUGCUCCGUUGAAUGGAGUUUAUCAUG

Variants of: B1
Assay: polymerase ribozyme fitness, log enrichment relative to wild type (log ratio); higher = more active; in vitro selection for triplet polymerase activity
Method in brief: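 PCR was used to build mutant libraries for each subunit of a heterodimeric triplet polymerase ribozyme, which were then transcribed. A single in vitro selection round, in triplicate, used a frozen incubation at −7 °C and recovered extended constructs by gel excision, streptavidin beads and RT-PCR. Fitness is the logarithm of genotype enrichment relative to wild-type enrichment, averaged over replicates with inverse-variance weights. The logarithm is base 2, and after Illumina sequencing only genotypes with ≥10 input reads and ≥1 read per output were kept.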

Row | Variant | polymerase ribozyme fitness (log ratio)
1 | A91U U148C | -4.1
2 | C96G G152C | -3.62
3 | C87G G88C G136A | ≤ -4.2
4 | A89C C93U C116U G128A | ≤ -4.2
5 | C87U U102G A138C | ≤ -4.2
6 | C93G A121C | -3.39
7 | C96U A115U G124C U151C | ≤ -4.2
8 | A89G A121G C131G | -3.53
9 | A91U A97G A122U A147U | ≤ -4.2
10 | C93A G141U | -0.625
11 | C93U G133C U134A G140A | ≤ -4.2
12 | G88A A150C | ≤ -4.2
13 | G94C A150G | -1.6
14 | G92A C114U | -3.92
15 | G88A C96U | -3.43
16 | A91C A137C A150C U151G | ≤ -4.2
17 | A89G A142C | -1.45
18 | C95U C131A C132U | -3.79
19 | A89U U144C | 0.497
20 | G94C C131U U135G G152A | -3.32
21 | C87G C93U G124C | ≤ -4.2
22 | G92C C114U G141U | ≤ -4.2
23 | U90G G141U | ≤ -4.2
24 | U90C U145G | ≤ -4.2

Row | Variant | polymerase ribozyme fitness (log ratio)
25 | G92A C103G C129G U134A | ≤ -4.2
26 | G94A U102G G133A | ≤ -4.2
27 | G92A C95A | -3.27
28 | C96U C125A U144G | -0.161
29 | C96A U104G | -0.932
30 | A89G A98G C99G | -2.3
31 | A91U G141C | -4.05
32 | A91U G141U | ≤ -4.2
33 | A89C A110C | ≤ -4.2
34 | G92U G141C U146A | -0.994
35 | G92A G141U | -1.8
36 | C96A C103A U135A U145A | -1.96
37 | G94U A142G | -3.45
38 | C96U C114U | -2.66
39 | C87U A98U | -1.16
40 | A91C A115G | -4.07
41 | G94C C103U A119C C125A | -2
42 | G92C C114U U151G | -4.12
43 | C93U U109G U144G | -1.39
44 | C96U A119C | -1.05
45 | C95U C149G | -3.59
46 | C95U C149U | -0.647
47 | C93U C125U U151C G152A | -3.06
48 | C95U C132G A150U | -3.31

Row | Variant | polymerase ribozyme fitness (log ratio)
49 | C87U C149A | -3.78
50 | G94A G143C | -2.41
51 | C93G C105A U135A | ≤ -4.2
52 | A91U C125A | -3.87
53 | A89G G126C | 0.0965
54 | G92U C99G | -1.57
55 | G88A C105U | -3.72
56 | A91G U144C | -2.47
57 | G94C C132U | -1.26
58 | C87U C116U | -0.851
59 | C95U U101C | -0.173
60 | A89G C108U | -3.7
61 | C93U U104A | -1.88
62 | C95U A122C U130G U139A | -4.01
63 | G88A C93G C96A A110G C123G | ≤ -4.2
64 | C96G G141U | 0.463
65 | G92A A121U | -2.71
66 | C87G A122U C129U U134C | ≤ -4.2
67 | C93G A113U | -4.11
68 | C87U U109G U127C U135A | -4
69 | G88C C105A G117C G141A A147U | ≤ -4.2
70 | U90A C95A | ≤ -4.2
71 | C96G C105U A113C A121U | -2.76
72 | C95U G100U U148G | ≤ -4.2

Row | Variant | polymerase ribozyme fitness (log ratio)
73 | C96G A121U | -0.582
74 | C96U A115G U148A | -3.95
75 | C93A A115G C116U | -2.39
76 | U90C G94U A120U G124U | ≤ -4.2
77 | C87U G112A | -3.91
78 | G94C G140A | -3.95
79 | C96G A107C C108A A120U G136U | -3.81
80 | G94U G143A | -1.67
81 | C93U G126A | -0.311
82 | A91G C96U | -3.04
83 | G94A A121U C132G U146A A150G | ≤ -4.2
84 | G92A U145G | -2.54
85 | C93U C114A A115C | ≤ -4.2
86 | C93A C103G A107U A119G G140A | ≤ -4.2
87 | G94C C99U | -0.0105
88 | C96U G128U A147C | -3.7
89 | U90A C131A G143A | -4.19
90 | A89C G92U C96A A106G A107U U139A | ≤ -4.2
91 | G92A A147U | -1.84
92 | C95A C96G U144C | -2.34
93 | A89G C95A A137C | -4.09
94 | A91G C105U | -1.66
95 | C93A G128C C132G A138G U148G | ≤ -4.2
96 | A91U G140C | ≤ -4.2

Row | Variant | polymerase ribozyme fitness (log ratio)
97 | U90A A119U G126A | ≤ -4.2
98 | G88U C93A | -3.73
99 | G88A A97U U102C | ≤ -4.2
100 | C96U A115U U145A | -1.79
101 | C95A U144G | 0.303
102 | G92C A119G | 0.0407
103 | C93U A119U U127G | -2.59
104 | C96U A150C | -3.31
105 | C96U A150U | -0.525
106 | G94A A115U C125U C132U A147U | ≤ -4.2
107 | C93G C123U G140U | -4.17
108 | C93G C103G C118A G136U U146C | ≤ -4.2
109 | G88A A97G U111G | ≤ -4.2
110 | A91U U111G U127C | ≤ -4.2
111 | C93A C99A | ≤ -4.2
112 | G92U A122U G141C | -0.707
113 | C87U G136U | -2.59
114 | C87U A150G | -1.2
115 | G88C C118G G140A | ≤ -4.2
116 | C95U C96G | -0.577
117 | C95U C96U | -1.18
118 | C87G A115U C116G | -3.97
119 | G92U C95U A147G U148A | -3.45
120 | C96G A98U G100A C108G G133C | ≤ -4.2

Row | Variant | polymerase ribozyme fitness (log ratio)
121 | C87U G88C | -3.83
122 | C96A A120G | 0.0421
123 | C93A A122U | -2.45
124 | C93U C96U | -3.28
125 | C93U C96G | -1.58
126 | C87U A110U A120C U135A G136A | ≤ -4.2
127 | C93A G100U U102G G117U A138C | ≤ -4.2
128 | C96A U127C | -1.71
129 | C96U G128U | -3.45
130 | G92U C116G C132G | -3.8
131 | C96A A107U | -2.87
132 | C96A A107G | -4.2
133 | C96U G100C | -3.97
134 | C93A A97G A113G G124U | -4.12
135 | C93U A115G | -3
136 | C87G C93G | -3.76
137 | G88C C131G U151G | ≤ -4.2
138 | A91U G94U C96G A115G G141C | ≤ -4.2
139 | C87U G92U A97U C99G | ≤ -4.2
140 | C93G U146G C149U | -3.51
141 | C93G G143U | -4.04
142 | C96U G124C | -0.743
143 | C93U C116G | -2.2
144 | G94A G136A | -0.0776

Row | Variant | polymerase ribozyme fitness (log ratio)
145 | G94A G136U | -2.56
146 | C93A C103A U135A A138G | ≤ -4.2
147 | C96U C114U A147C | -4.07
148 | C96U A110G | -3.55
149 | G92U G136A | 0.353
150 | G92U C105G C125U A137G | -3.35
151 | G94A A137U | -3.87
152 | G88U C108A G128C C132U A137U | ≤ -4.2
153 | A91C G100U | ≤ -4.2
154 | G94A C118A | -0.879
155 | G94A C118G | -1.61
156 | C93U A122G C129U U146G | -3.83
157 | C87U U134C | -0.522
158 | C87U A91U C96U | ≤ -4.2
159 | C93A U135C | -3.56
160 | C93A A98U | -0.828
161 | C96G U111C | -3.62
162 | C96U G128A U130G | ≤ -4.2
163 | A89C C93U U135A | -3.55
164 | G94C C96U G112C U146C | ≤ -4.2
165 | C93U G124A | -1.3
166 | C93U G124U | -2.66
167 | G94C C103U | -0.0253

Source: the RNAGym collection of RNA variant scans (doi:10.1073/pnas.2313332121)
